Experimental data published in publication PMC7092541, “Characterization of a novel family VIII esterase EstM2 from soil metagenome capable of hydrolyzing estrogenic phthalates” (Microbial Cell Factories, 2020).

Tests used:
Test in all cases: purified protein
[1] = test system: CC(=O)Oc1ccc([N+](=O)[O-])cc1; settings: 50 mM Tris-HCl pH 8.0, 1% acetonitrile
[2] = test system: CCCC(=O)Oc1ccc([N+](=O)[O-])cc1; settings: 50 mM Tris-HCl pH 8.0, 1% acetonitrile
[3] = test system: CCCCCC(=O)Oc1ccc([N+](=O)[O-])cc1; settings: 50 mM Tris-HCl pH 8.0, 1% acetonitrile
[4] = test system: CCCCOC(=O)c1ccccc1C(=O)OCCCC; settings: 50 mM Tris-HCl pH 8.0, 37 °C, substrate 0.1-10 mM (unit defined at 25 °C)
[5] = test system: CCCCOC(=O)c1ccccc1C(=O)OCc1ccccc1; settings: 50 mM Tris-HCl pH 8.0, 37 °C, substrate 0.1-10 mM (unit defined at 25 °C)
CCCCOC(=O)c1ccccc1C(=O)O = settings: 50 mM Tris-HCl pH 8.0, 37 °C, substrate 0.1-10 mM (unit defined at 25 °C)
CCOC(=O)c1ccccc1C(=O)O = settings: 50 mM Tris-HCl pH 8.0, 37 °C, substrate 0.1-10 mM (unit defined at 25 °C)
COC(=O)c1ccccc1C(=O)OC = settings: 50 mM Tris-HCl pH 8.0, 37 °C, substrate 0.1-10 mM (unit defined at 25 °C)
COC(=O)c1ccccc1C(=O)O = settings: 50 mM Tris-HCl pH 8.0, 37 °C, substrate 0.1-10 mM (unit defined at 25 °C)
[6] = test system: O=C(O)c1ccccc1C(=O)OCc1ccccc1; settings: 50 mM Tris-HCl pH 8.0, 37 °C, substrate 0.1-10 mM (unit defined at 25 °C)
[7] = test system: O=C(O)c1ccccc1C(=O)Oc1ccccc1; settings: 50 mM Tris-HCl pH 8.0, 37 °C, substrate 0.1-10 mM (unit defined at 25 °C)
[8] = test system: O=C(Oc1ccccc1)c1ccccc1C(=O)Oc1ccccc1; settings: 50 mM Tris-HCl pH 8.0, 37 °C, substrate 0.1-10 mM (unit defined at 25 °C)

For EstM2 (uncultured bacterium), the Km [1] was 0.41 ± 0.01 mM, the Vmax [1] was 748 µmol/min/mg and the kcat/Km [1] was 1.29e+06 ± 32500 M⁻¹ s⁻¹. The Km [2] was 0.44 ± 0.01 mM, the Vmax [2] was 905 µmol/min/mg and the kcat/Km [2] was 1.46e+06 ± 34200 M⁻¹ s⁻¹. The Km [3] was 0.28 ± 0.02 mM, the Vmax [3] was 71.4 µmol/min/mg and the kcat/Km [3] was 183000 ± 10700 M⁻¹ s⁻¹. The Km [4] was 0.62 ± 0.04 mM, the Vmax [4] was 72.9 µmol/min/mg and the kcat/Km [4] was 84200 ± 5100 M⁻¹ s⁻¹. The Km [5] was 0.64 ± 0.04 mM, the Vmax [5] was 57.6 µmol/min/mg and the kcat/Km [5] was 64500 ± 3800 M⁻¹ s⁻¹. The Km (CCCCOC(=O)c1ccccc1C(=O)O) was 1.26 ± 0.08 mM, the Vmax (CCCCOC(=O)c1ccccc1C(=O)O) was 56.7 µmol/min/mg and the kcat/Km (CCCCOC(=O)c1ccccc1C(=O)O) was 32200 ± 2200 M⁻¹ s⁻¹. For the same substance, the Km (CCOC(=O)c1ccccc1C(=O)O) was 1.73 ± 0.13 mM, the Vmax (CCOC(=O)c1ccccc1C(=O)O) was 54.2 µmol/min/mg and the kcat/Km (CCOC(=O)c1ccccc1C(=O)O) was 22500 ± 1600 M⁻¹ s⁻¹. The Km (COC(=O)c1ccccc1C(=O)OC) was 1.02 ± 0.08 mM, the Vmax (COC(=O)c1ccccc1C(=O)OC) was 42.1 µmol/min/mg and the kcat/Km (COC(=O)c1ccccc1C(=O)OC) was 29600 ± 2300 M⁻¹ s⁻¹. It also gave a Km (COC(=O)c1ccccc1C(=O)O) of 1.95 ± 0.15 mM, a Vmax (COC(=O)c1ccccc1C(=O)O) of 41.3 µmol/min/mg and a kcat/Km (COC(=O)c1ccccc1C(=O)O) of 15200 ± 1200 M⁻¹ s⁻¹. For the same substance, the Km [6] was 1.12 ± 0.08 mM, the Vmax [6] was 43.8 µmol/min/mg and the kcat/Km [6] was 28000 ± 2000 M⁻¹ s⁻¹. It also gave a Km [7] of 1.06 ± 0.08 mM, a Vmax [7] of 37.6 µmol/min/mg and a kcat/Km [7] of 25400 ± 1900 M⁻¹ s⁻¹. For the same substance, the Vmax [8] was 45.1 µmol/min/mg and the kcat/Km [8] was 54800 ± 3600 M⁻¹ s⁻¹.
